Patent US20210246218A1 (LYVGEN BIOPHARMA SUZHOU, published 2021)
Positions count from the first letter of the chain named. Numbers in names are those of the source. Read-outs that look alike come from different tables or passages of the source.

B1: reference antibody 371 (murine/human chimeric) (antibody, V domains shown)
VH: QVQLQQSGAELVRPGASVTLSCKASGYTFAGFEMHWIKQTPVHGLGWIGAIDPKTGGTDYNQKFKDKALLTADKSSNTAYMELRSLTSEDSAVYYCTRDLGYFDVWGTGTTVTVSS
VL: DIQMTQTTSSLSASLGDRVTISCRASQDIRSNLNWYQQKPDGTVKLLIYYTSRLHSGVPSRFSGSGSGTDYSLTISNLEQEDIATYFCQQSEKLPRTFGGGTKLEIRR
B2: humanized anti-CD137 antibody clone 3715 (IgG4 S228P/kappa) (antibody, V domains shown)
VH: QVQLVQSGAEVVKPGASVKVSCKASGYTFAGFEMHWVRQAPGQGLGWMGAIDPKTGGTDYNQKFKDRVTMTADTSISTAYMELSRLRSDDTAVYYCTRDLGYFDVWGQGTLVTVSS
VL: DIQMTQSPSSLSASVGDRVTITCRASQDIRSNLNWYQQKPGGAVKLLIYYTSRLHSGVPSRFSGSGSGTDYTLTISSLQPEDFATYFCQQSEKLPRTFGGGTKVEIRR
B3: humanized anti-CD137 antibody clone 3711 (IgG4 S228P/kappa) (antibody, V domains shown)
VH: B2 VH with V12K, G46E, A72R, T97A
VL: B2 VL with G42K, V44P, Y71F, F87Y
B4: humanized anti-CD137 antibody clone 3712 (IgG4 S228P/kappa) (antibody, V domains shown)
VH: B2 VH with V12K, G46E, A72R, T97A
VL: B2 VL
B5: humanized anti-CD137 antibody clone 3713 (IgG4 S228P/kappa) (antibody, V domains shown)
VH: B2 VH with V12K, G46E, A72R, T97A
VL: B2 VL with V104L
B6: humanized anti-CD137 antibody clone 3714 (IgG4 S228P/kappa) (antibody, V domains shown)
VH: B2 VH
VL: B2 VL with G42K, V44P, Y71F, F87Y
B7: humanized anti-CD137 antibody clone 3716 (IgG4 S228P/kappa) (antibody, V domains shown)
VH: B2 VH
VL: B2 VL with V104L
B8: humanized anti-CD137 antibody clone 3717 (IgG4 S228P/kappa) (antibody, V domains shown)
VH: B2 VH with V20L, V37I, M48I, V68A, M70L
VL: B2 VL with G42K, V44P, Y71F, F87Y
B9: humanized anti-CD137 antibody clone 3718 (IgG4 S228P/kappa) (antibody, V domains shown)
VH: B2 VH with V20L, V37I, M48I, V68A, M70L
VL: B2 VL
B10: humanized anti-CD137 antibody clone 3719 (IgG4 S228P/kappa) (antibody, V domains shown)
VH: B2 VH with V20L, V37I, M48I, V68A, M70L
VL: B2 VL with V104L

Tests used:
CD137 protein [1] = biological target: T1, CD137 protein (UniProt Q07011 24-186, limits assumed); assay: competition ELISA with CD137L: CD137 receptor coated, antibody titrated, CD137L added; A450-A620 falls with the antibody concentration (midpoint of an inhibition curve, called EC50 in the sheet's table)
T1 construct: also called CD137 antigen; CD137 receptor
Protocol: CD137 receptor was diluted in DPBS to 1 μg/mL, and then coated onto an ELISA plate (Corning, Catalog number: 9018, high binding) with a volume of 50 μL (0.05 μg) per well, and incubated at 4° C. overnight. The plate was decanted and washed once; assay diluent was added 200 μL/well. […] The diluted CD137 receptor was added to the assay plate, 50 μL/well, in duplicate. The plate was incubated one hour at room temperature. […] The plate was incubated one hour at room temperature and then washed three times with PBST. Goat anti-human IgG-H+L HRP conjugated at 1:100,000 20 dilution was added to the plate at 100 μL/well. The plate was then incubated one hour at room temperature followed by washing with PBST four times. The TMB substrate solution was added at 100 μL/well. The color was allowed to develop for 15 minutes, and was stopped with 100 μL/well 2N H2SO4. Absorbance at 450 nm and 620 nm was determined by a Tecan F200 Pro reader.

CD137 protein [2] = biological target: T1, CD137 protein; assay: BLI (Octet Red 96), antibody on anti-human Fc sensors, CD137 protein in solution, 1:1 model
Protocol: (§1) The chimeric and humanized antibodies were tested in an antigen binding assay on Octet Red 96 to estimate binding kinetics. Antibodies were loaded onto anti-human Fc (AHC) biosensors. Loaded sensors were dipped into a serial dilution of CD137 protein (300 nM, 1:3 down, 7 points) in assay buffer (PBS with 0.1% BSA, 0.02% Tween-20 (pH 7.2)).

CD137 protein [3] = biological target: T1, CD137 protein; assay: as above; remark: listed apart in the source
Protocol: as §1, with “KD Measurements of CD137 Antigen Binding were made according to the protocol described in Example 2 above. The” for “The”, “antigen-binding” for “antigen binding”

CD137 protein [4] = biological target: T1, CD137 protein; assay: BLI (Octet Red 96); reference apparently the parental chimeric antibody 371
Protocol: as §1

Binder | EC50 (CD137 protein [1]) | Kd (CD137 protein [2]) | koff (CD137 protein [2]) | kon (CD137 protein [2]) | Kd (CD137 protein [3]) | koff (CD137 protein [3]) | kon (CD137 protein [3]) | fold higher off-rate (CD137 protein [4])
B1 | 0.101 µg/mL | 3.9 nM | 0.0011 s⁻¹ | 280000 M⁻¹ s⁻¹ | 3.9 nM | 0.0011 s⁻¹ | 280000 M⁻¹ s⁻¹ | 
B2 |  |  |  |  | 5.9 nM | 0.0018 s⁻¹ | 310000 M⁻¹ s⁻¹ | 
B3 |  | 2.4 nM | 0.00046 s⁻¹ | 190000 M⁻¹ s⁻¹ | 2.5 nM | 0.00046 s⁻¹ | 190000 M⁻¹ s⁻¹ | 
B4 |  | 10 nM | 0.0031 s⁻¹ | 310000 M⁻¹ s⁻¹ | 10 nM | 0.0031 s⁻¹ | 310000 M⁻¹ s⁻¹ | 3 fold
B5 |  |  |  |  | 3.8 nM | 0.0011 s⁻¹ | 290000 M⁻¹ s⁻¹ | 
B6 |  |  |  |  |  | < 1e-07 s⁻¹ | 130000 M⁻¹ s⁻¹ | 
B7 |  |  |  |  | 7 nM | 0.0022 s⁻¹ | 320000 M⁻¹ s⁻¹ | 
B8 |  |  |  |  | 2.3 nM | 0.00034 s⁻¹ | 150000 M⁻¹ s⁻¹ | 
B9 |  |  |  |  | 8.3 nM | 0.0026 s⁻¹ | 310000 M⁻¹ s⁻¹ | 
B10 |  |  |  |  | 8.5 nM | 0.0026 s⁻¹ | 310000 M⁻¹ s⁻¹ | 
